# From publication PMC11924945 (2024)
# B1: Aedes aegypti Nest1 (neutrophil-stimulating factor 1), recombinant, amino acids 22 to 316 (natural protein)
# chain: KPTQGSCTLTDEDISDIKSAVQKASKAAVNDIVLDPTLIDKCPMLEKITASLKSVATEIVQMRDSAISTDQVDQLKQNFEDQVNQIVKSRDIFEKQSGTQATKEHGEMLERMTALQVKVTELEQQIAKQTASMYEDMAELIFQRLQMNSTESVRSYTKHMMEEKLEELMNKLETNYRIYLGALRFLNHMNDQELIGKVFDGILKRLGDMKADSDDVKENGRNLLVNLLCWTVNNDFLGKKYKERQVDLYRMALKFYPKTYEKAANEADVRSRQFCEENFPANLITWFAVSWNDRG
# modifications: biotin (BirA500 kit) in the yeast library screen
# Biological target: human CD47 (19 to 135) tagged with human immunoglobulin G1 Fc (N297A) (human, UniProt Q08722 19-135, biotin (NHS-biotin, 10-fold molar excess) in SPR)
# Sequence (Q08722 19-135, stated change not applied): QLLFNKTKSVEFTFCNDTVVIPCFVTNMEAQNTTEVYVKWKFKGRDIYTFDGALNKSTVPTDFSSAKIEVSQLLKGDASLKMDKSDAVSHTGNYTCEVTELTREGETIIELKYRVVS
# Assay: SPR
binder,measurement,value
B1,koff,0.0121 s⁻¹
